The text below walks through data of publication PMC4837482, “The complex binding mode of the peptide hormone H2 relaxin to its receptor RXFP1” (Nature Communications, 2016).

Broadly, the Kd is a measure of binding affinity in units of concentration.

Where no end group is shown, it is not given here. The star is where a group is joined. DTPA = O=C(O)CN(CCN(CC(=O)O)CC(=O)O)CCN(CC(=O)O)CC(=O)*

One experiment concerns the target T1, RXFP1(1–72) (Homo sapiens, UniProt Q9HBX9).
T1 construct: GB1 (N, cleaved yes); made in house; host or cells: E. coli BL21 (DE3) trxB
T1 sequence (Q9HBX9 23-94 limits assumed): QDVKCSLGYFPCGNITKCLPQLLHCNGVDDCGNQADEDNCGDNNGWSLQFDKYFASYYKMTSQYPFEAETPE
As to the kind of experiment: NMR competition titration against the RXFP1(1–72)/Mn2+-DTPA-(A)-H2 complex. As to conditions: 50 μM peptide added to 50 μM 15N-RXFP1(1–72) with 0.2 μM Mn2+-DTPA-(A)-H2; pH 6.8, 25 °C. The format is binding. The method, then: All RXFP1(1–72) protein samples for nuclear magnetic resonance (NMR) experiments were prepared from lyophilized protein in 50 mM imidazole, with 10 mM CaCl2 at pH 6.8. Recombinant human gene-2 H2 relaxin peptide was kindly provided by Corthera. EL1^(475–486)/EL2-GB1 samples were prepared as described above. Titrant and titrand were dialyzed in the same buffer in the same vessel. All NMR experiments were routinely collected at 25 °C on a 700-MHz Bruker Avance HDIII spectrometer equipped with triple resonance cryoprobe. […] Backbone assignments were made from 3D HNCACB, HNCOCACB, HNCO and HNCACO experiments. Spectra were processed using NMRPipe (ref. [43]) and typically Fourier-transformed after applying Lorentz-to-Gauss window functions in the direct dimension and cosine bells in the indirect dimensions. NMR data were analysed using SPARKY (Goddard, T.D. and Kneller, D.G., University of California, San Francisco). Assignments of the mutant RXFP1(1–72) proteins were determined from the assignments of wild-type RXFP1(1–72).
^15N{^1H}-NOE experiments[45] (2,048 × 256 data points) were acquired with a saturation pulse of 4 s and an additional relaxation delay of 5 s. Sample conditions were 150 μM RXFP(1–72) or mutants either without or with 450 μM H2 relaxin. Binding to Mn^2+-DTPA-(A)-H2 to RXFP1(1–72) and mutants was monitored by recording 2D ^1H-^15N HSQC (2,048 × 256 data points) for 0.2 μM Mn^2+-DTPA-(A)-H2 against 50 μM RXFP1(1–72). H2 relaxin and its truncates such as A-chain (9–24), H2/I5 chimera and Phe23Ala A-chain mutant H2 were titrated into a complex of 50 μM RXFP1(1–72) and 0.2 μM Mn^2+-DTPA-(A)-H2 with increasing concentrations ranging from 5 to 50 μM.

Another experiment deals with T2, RXFP1 C40A^ins (Homo sapiens, UniProt Q9HBX9, INS62A).
T2 construct: cells expressing full-length RXFP1 and mutants; expressed in transfected cells; host or cells: HEK293T
T2 sequence (Q9HBX9 with tags, fused parts or gaps INS62A limits assumed): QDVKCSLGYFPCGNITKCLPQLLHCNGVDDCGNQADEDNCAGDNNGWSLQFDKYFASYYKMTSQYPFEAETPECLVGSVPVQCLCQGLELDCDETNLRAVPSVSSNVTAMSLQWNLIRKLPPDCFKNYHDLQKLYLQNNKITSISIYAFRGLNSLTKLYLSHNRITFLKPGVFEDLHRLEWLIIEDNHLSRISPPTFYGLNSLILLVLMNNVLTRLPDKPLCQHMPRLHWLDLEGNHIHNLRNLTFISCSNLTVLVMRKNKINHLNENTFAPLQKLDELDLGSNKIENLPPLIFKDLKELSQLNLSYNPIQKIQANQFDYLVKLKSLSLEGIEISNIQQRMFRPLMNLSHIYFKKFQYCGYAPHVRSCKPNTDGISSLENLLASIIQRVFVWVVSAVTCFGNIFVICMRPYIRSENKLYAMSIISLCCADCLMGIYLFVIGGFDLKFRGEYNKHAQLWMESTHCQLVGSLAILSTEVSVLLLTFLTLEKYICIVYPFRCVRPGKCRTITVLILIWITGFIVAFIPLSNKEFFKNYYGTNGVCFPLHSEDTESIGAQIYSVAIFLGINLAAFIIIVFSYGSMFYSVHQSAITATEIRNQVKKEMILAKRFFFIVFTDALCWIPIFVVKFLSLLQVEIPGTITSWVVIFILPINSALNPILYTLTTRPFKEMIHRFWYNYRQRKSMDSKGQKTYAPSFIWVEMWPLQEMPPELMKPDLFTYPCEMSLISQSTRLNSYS
Kind of experiment: Eu-H2 relaxin saturation binding assay, transfected HEK293T cells. The following applies: C40A^ins full-length RXFP1 versus wild-type RXFP1.

The target in another experiment is LRR domain of RXFP1. As to the kind of experiment: Affinity for the LRR domain predicted from the titration data. Further details: species or system human. The following applies: predicted from the RXFP1(1–72) titration data.
Experiment [1] deals with T3, relaxin family peptide receptor-1 (RXFP1), wild type, full length (human, UniProt Q9HBX9 23-757).
T3 construct: also called wild-type RXFP1; source: HEK293T, transiently transfected, on cells; not shown: FLAG, N-terminal, kept
T3 sequence (looked up): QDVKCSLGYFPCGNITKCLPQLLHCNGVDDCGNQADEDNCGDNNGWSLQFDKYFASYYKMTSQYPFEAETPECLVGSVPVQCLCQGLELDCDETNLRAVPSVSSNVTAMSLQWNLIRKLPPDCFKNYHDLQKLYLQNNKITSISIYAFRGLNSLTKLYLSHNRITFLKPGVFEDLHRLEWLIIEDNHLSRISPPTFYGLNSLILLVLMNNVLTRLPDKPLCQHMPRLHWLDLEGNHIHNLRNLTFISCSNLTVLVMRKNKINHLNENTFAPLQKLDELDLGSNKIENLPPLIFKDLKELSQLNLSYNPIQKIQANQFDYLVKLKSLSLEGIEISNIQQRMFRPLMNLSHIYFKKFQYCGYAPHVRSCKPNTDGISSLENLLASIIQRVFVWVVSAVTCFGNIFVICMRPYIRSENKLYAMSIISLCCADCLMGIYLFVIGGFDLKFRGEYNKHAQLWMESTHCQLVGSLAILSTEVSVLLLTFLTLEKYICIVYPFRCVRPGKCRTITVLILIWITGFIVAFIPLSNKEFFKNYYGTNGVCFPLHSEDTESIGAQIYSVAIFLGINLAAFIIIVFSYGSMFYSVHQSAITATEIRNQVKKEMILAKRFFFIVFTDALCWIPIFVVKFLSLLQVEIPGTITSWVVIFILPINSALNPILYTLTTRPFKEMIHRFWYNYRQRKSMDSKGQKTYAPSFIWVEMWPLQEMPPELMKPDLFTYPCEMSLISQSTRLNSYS
As to the kind of experiment: europium-labelled ligand saturation binding on cells (time-resolved fluorescence); HEK293T cells transiently transfected with receptor, 96-well plates; increasing Eu-H2 relaxin (maximum 15 nM) with or without 1 μM unlabelled H2 relaxin, 1 h, room temperature; 20 mM HEPES pH 7.5, 1.5 mM CaCl2, 50 mM NaCl, 0.01% NaN3, 1% BSA; one-site fit. As to conditions: one partner purified.

As to “H2 relaxin: two-chain 6-kDa peptide hormone structurally related to insulin; recombinant human gene-2 H2 relaxin provided by Corthera”, the “competition with Mn2+-DTPA-(A)-H2 for RXFP1(1–72) (peak intensities, chemical shifts)” value with RXFP1(1–72) is “reappearance of the broadened peaks”. For the same molecule, the “decrease in H2 relaxin affinity” value with RXFP1 C40A^ins is given as “sixfold”. Further, the Kd on LRR domain of RXFP1 is roughly 1000 nM.

B1: Europium-labelled H2 relaxin (ligand, human)
chain 1: {DTPA}-QLYSALANKCCHVGCTKRSLARFC
chain 2: DSWMEEVIKLCGRELVRAQIAICGMSTWS
modifications: not fully specified; ends and bridges not checked; also: DTPA cage loaded with Eu^3+
notes: A chain of human gene-2 (H2) relaxin; numbers count on: the A chain; B chain of human gene-2 (H2) relaxin; numbers count on: the B chain; also called Eu-H2 relaxin; Eu-H2
Take B1: the affinity in experiment [1], expressed as Kd, was 0.57 nM.
